Among the data in patent US12428663B2, “Identification of DNA polymerase theta inactivation mechanism” (The Johns Hopkins University, priority 2018, dated 2025) are Km and kcat values, retold here.

The subject of the data set is primer-template complex 5. The experiment in a line: Steady-state kinetic analysis of dA incorporation in 5 by Pol θ variants (polymerase activity). The class given is biochemical. The note with it: dA incorporation in 5, 25° C. The protocol:
1.4.3. Steady-state kinetic analysis of dA incorporation in 5 by Pol θ. Polymerase reactions were conducted with Pol θ (432 pM for wild type Pol θ and 5 nM for K2383A and K2383R), 5′-^32P-5 (50 nM), and a range of dATP concentrations (0.25 μM-100 μM for wild type and 62.5-5000 μM for mutants) at 25° C. in reaction buffer (10 mM Tris HCl pH 8, 25 mM KCl, 10 mM MgCl2, 1 mM BME). The concentration range for dATP and the reaction time were selected so that reactions proceeded no further than 25% (single-hit conditions). In a typical experiment, a 2×DNApolymerase solution was prepared by mixing 5′-^32P-5 (500 nM, 18 μL), 10×reaction buffer (18 μL), 10×Pol θ (4.32 nM for wild type or 50 nM for mutants, 18 μL) in storage buffer (20 mM Tris HCl pH 7, 300 mM NaCl, 10% glycerol, 5 mM BME), and H2O (36 μL). The 2×DNAenzyme solution (3 μL) was mixed with the appropriate 2×dNTP solution (3 μL) to initiate the reaction. Reactions were incubated for 20 s for wild type Pol θ, 1.5 min for K2383R, and 4 min for K2383A, after which, they were quenched with 95% formamide loading buffer containing 25 mM EDTA (6 μL). An aliquot (4 μL) was analyzed by 20% denaturing PAGE run at 55 W for approximately 3.5 h. The gel was analyzed by phosphorimaging, and the data were fit to the Michaelis-Menten equation. The kcat was determined by dividing Vmax by the active concentration of enzyme. […]

B1: wt28: wild type Pol θ catalytic core (residues 1792-2590) (protein, UniProt O75417 1792-2590, looked up, fragment)
chain: GFKDNSPISDTSFSLQLSQDGLQLTPASSSSESLSIIDVASDQNLFQTFIKEWRCKKRFSISLACEKIRSLTSSKTATIGSRFKQASSPQEIPIRDDGFPIKGCDDTLVVGLAVCWGGRDAYYFSLQKEQKHSEISASLVPPSLDPSLTLKDRMWYLQSCLRKESDKECSVVIYDFIQSYKILLLSCGISLEQSYEDPKVACWLLDPDSQEPTLHSIVTSFLPHELPLLEGMETSQGIQSLGLNAGSEHSGRYRASVESILIFNSMNQLNSLLQKENLQDVFRKVEMPSQYCLALLELNGIGFSTAECESQKHIMQAKLDAIETQAYQLAGHSFSFTSSDDIAEVLFLELKLPPNREMKNQGSKKTLGSTRRGIDNGRKLRLGRQFSTSKDVLNKLKALHPLPGLILEWRRITNAITKVVFPLQREKCLNPFLGMERIYPVSQSHTATGRITFTEPNIQNVPRDFEIKMPTLVGESPPSQAVGKGLLPMGRGKYKKGFSVNPRCQAQMEERAADRGMPFSISMRHAFVPFPGGSILAADYSQLELRILAHLSHDRRLIQVLNTGADVFRSIAAEWKMIEPESVGDDLRQQAKQICYGIIYGMGAKSLGEQMGIKENDAACYIDSFKSRYTGINQFMTETVKNCKRDGFVQTILGRRRYLPGIKDNNPYRKAHAERQAINTIVQGSAADIVKIATVNIQKQLETFHSTFKSHGHREGMLQSDQTGLSRKRKLQGMFCPIRGGFFILQLHDELLYEVAEEDVVQVAQIVKNEMESAVKLSVKLKVKVKIGASWGELKDFDV
modifications: catalytic core
Regarding B1, the Km was found to be 5 ± 1 µM and the kcat stood at 1.08 ± 0.2 s⁻¹.

Usually Km stands for the substrate concentration at which the rate is half of its maximum. Usually kcat stands for the number of substrate molecules converted per active site and unit of time at saturation.
